Experimental findings from patent US20250340635A1 (HEFEI TG IMMUNOPHARMA, published 2025) are described below.

In assay [1] the target is T1, cynomolgus monkey-His fusion protein (cynomolgus monkey, UniProt Q95JB9 22-257).
T1 construct: extracellular domain; also called cynomolgus monkey NKp46; monkey NKp46; not shown: His tag
Description: not described at this place ("Validation has shown"); Jeru4602 was tested by ELISA on coated cynomolgus NKp46-His in Example 7. The procedure: The binding characteristics of the humanized 10D10 antibody prepared in Example 6 was detected using the ELISA assay. The NKp46 extracellular region His tag fusion protein (NKp46-His) was coated into a 96-well plate. The signal intensity after antibody addition was used to determine the binding characteristics of the antibody to NKp46. The specific steps were as follows:
The human NKp46-His fusion protein and cynomolgus monkey-His fusion protein (for specific sources, see Example 2) were diluted to 1 μg/mL with PBS buffer, added to a 96-well plate at 100 μL/well and left overnight at 4° C. The PBS buffer solution was removed from the 96-well plate. The plate was washed 6 times with PBST (pH 7.2, PBS containing 0.1% Tween 20) buffer solution. PBS/10% BSA was added at 200 μL/well and incubated at 37° C. for 2 hours for blocking. The blocking solution was removed. The plate was washed 6 times with PBST. […] The absorbance at […] was read with a microplate reader.
(ELISA stands for enzyme-linked immunosorbent assay.)

Assay [2] deals with T2, human MICA-His fusion protein (human, UniProt Q29983 24-307).
T2 construct: extracellular domain; also called MICA extracellular region His tag fusion protein; not shown: His tag
T2 sequence (looked up): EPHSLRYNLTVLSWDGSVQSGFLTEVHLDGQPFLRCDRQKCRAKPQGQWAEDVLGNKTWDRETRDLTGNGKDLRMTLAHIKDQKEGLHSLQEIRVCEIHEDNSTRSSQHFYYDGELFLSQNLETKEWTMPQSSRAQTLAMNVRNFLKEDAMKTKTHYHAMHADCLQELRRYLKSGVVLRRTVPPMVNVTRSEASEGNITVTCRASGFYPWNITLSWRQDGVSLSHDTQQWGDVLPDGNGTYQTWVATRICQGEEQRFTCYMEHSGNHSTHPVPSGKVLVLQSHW
Description: ELISA, MICA-His coated, anti-human HRP.

Assay [3] addresses T3, human NKp46-His fusion protein (human, UniProt O76036 22-258).
T3 construct: Bought from Acro; also called NKp46 extracellular region His tag fusion protein; not shown: His tag
Description: ELISA, NKp46-His coated, anti-human HRP.

T3 sequence (O76036 22-258 Q82K): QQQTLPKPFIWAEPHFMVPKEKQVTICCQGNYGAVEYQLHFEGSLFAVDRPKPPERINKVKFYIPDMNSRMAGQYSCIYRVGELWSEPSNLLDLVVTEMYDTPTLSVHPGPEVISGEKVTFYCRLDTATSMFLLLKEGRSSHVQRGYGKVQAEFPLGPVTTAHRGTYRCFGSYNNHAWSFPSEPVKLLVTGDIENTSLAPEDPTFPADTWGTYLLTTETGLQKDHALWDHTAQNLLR
T1 sequence (Q95JB9 22-257): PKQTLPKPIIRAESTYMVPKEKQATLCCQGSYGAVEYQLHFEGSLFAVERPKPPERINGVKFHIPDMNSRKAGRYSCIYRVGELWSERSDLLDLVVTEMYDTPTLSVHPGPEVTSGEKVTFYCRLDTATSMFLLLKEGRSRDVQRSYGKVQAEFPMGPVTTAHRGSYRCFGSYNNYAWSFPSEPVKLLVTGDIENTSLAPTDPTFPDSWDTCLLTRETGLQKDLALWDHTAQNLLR

B1: Jeru4602 (antibody, human IgG1, kappa, L234A L235A, V domains shown)
VH: QVTLKESGPGILQPSQTLSLTCSFSGFSLSTYGIGVGWNRQPSGKGLEWLAHIWWNDNEYYNIDLKSRLTISKDTSNNQVFLKIASVDTADTATYYCVRGNYRYARGYVMDYWGQGTSVTVSS
VL: DIVLTQSPASLAVSLGQRATISCRASESVEYYGTSLMQWYQQKPGQPPKLLIYAASNVESGVPARFSGSGSGTDFSLNIHPVEEDDFAMYFCQQNRKVPWTFGGGTKLEIKR
notes: also called control antibody 2; NKp46 antibody disclosed in U.S. Ser. No. 10/716,864
As to B1, the binding result in assay [1] is listed as “no binding”.

B2: murine 10D10×MICA bispecific antibody (bispecific antibody, human IgG1, kappa, L234A L235A)
chain: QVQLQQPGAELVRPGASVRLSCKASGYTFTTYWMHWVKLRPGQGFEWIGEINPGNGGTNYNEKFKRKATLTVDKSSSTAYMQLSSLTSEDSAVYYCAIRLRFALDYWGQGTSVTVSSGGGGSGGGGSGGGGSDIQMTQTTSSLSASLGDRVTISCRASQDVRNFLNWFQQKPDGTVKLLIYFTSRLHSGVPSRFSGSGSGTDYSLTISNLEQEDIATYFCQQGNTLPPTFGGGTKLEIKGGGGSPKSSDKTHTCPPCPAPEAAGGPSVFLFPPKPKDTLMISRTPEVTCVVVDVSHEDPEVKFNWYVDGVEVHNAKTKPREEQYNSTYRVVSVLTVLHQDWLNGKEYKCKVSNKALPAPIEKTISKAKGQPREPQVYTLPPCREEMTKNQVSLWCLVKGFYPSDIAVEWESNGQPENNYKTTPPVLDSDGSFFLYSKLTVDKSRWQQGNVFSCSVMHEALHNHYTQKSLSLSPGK
heavy: QVQLQESGPGLVKPSETLSLTCTVSGFSLTTYGVHWIRQPPGKGLEWIGMIWTDATTDYNAAFISRVTISVDTSKNQFSLKLSSVTAADTAVYYCARKGHGYYYAMDYWGQGTLVTVSSASTKGPSVFPLAPSSKSTSGGTAALGCLVKDYFPEPVTVSWNSGALTSGVHTFPAVLQSSGLYSLSSVVTVPSSSLGTQTYICNVNHKPSNTKVDKKVEPKSCDKTHTCPPCPAPEAAGGPSVFLFPPKPKDTLMISRTPEVTCVVVDVSHEDPEVKFNWYVDGVEVHNAKTKPREEQYNSTYRVVSVLTVLHQDWLNGKEYKCKVSNKALPAPIEKTISKAKGQPREPQVCTLPPSREEMTKNQVSLSCAVKGFYPSDIAVEWESNGQPENNYKTTPPVLDSDGSFFLVSKLTVDKSRWQQGNVFSCSVMHEALHNHYTQKSLSLSPGK
light: EIVLTQSPGTLSLSPGERATLSCTASSSVSSSYLHWYQQKPGQAPRLLIYSTSNLASGIPDRFSGSGSGTDFTLTISRLEPEDFAVYYCHQYHRSPFTFGQGTKLEIKRTVAAPSVFIFPPSDEQLKSGTASVVCLLNNFYPREAKVQWKVDNALQSGNSQESVTEQDSKDSTYSLSSTLTLSKADYEKHKVYACEVTHQGLSSPVTKSFNRGEC
notes: First chain is the murine 10D10 ScFv-Fc (knob); the heavy and light chains are those of the MICA antibody (hole); knob-into-hole heterodimer; also called NKp46 (murine 10D10)×MICA bispecific antibody
As for B2, the binding result in assay [2] and in assay [3] was “binds” throughout.

B3: humanized 10D10×MICA bispecific antibody (bispecific antibody, human IgG1, kappa, L234A L235A)
chain: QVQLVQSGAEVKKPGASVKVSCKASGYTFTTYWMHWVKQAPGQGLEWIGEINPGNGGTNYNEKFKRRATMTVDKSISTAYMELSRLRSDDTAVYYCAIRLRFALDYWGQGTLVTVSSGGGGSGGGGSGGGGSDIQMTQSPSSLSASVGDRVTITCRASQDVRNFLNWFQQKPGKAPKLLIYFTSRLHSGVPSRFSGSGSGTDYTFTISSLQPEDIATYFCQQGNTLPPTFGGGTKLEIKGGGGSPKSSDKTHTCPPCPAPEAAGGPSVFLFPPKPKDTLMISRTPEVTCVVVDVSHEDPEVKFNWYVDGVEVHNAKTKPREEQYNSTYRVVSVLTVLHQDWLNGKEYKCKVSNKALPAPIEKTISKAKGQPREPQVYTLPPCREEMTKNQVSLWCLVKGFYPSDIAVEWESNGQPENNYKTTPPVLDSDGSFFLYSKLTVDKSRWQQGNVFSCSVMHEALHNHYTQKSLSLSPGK
heavy: B2 heavy
light: B2 light
notes: First chain is the humanized h10D10 ScFv-Fc (knob); the heavy and light chains are those of the MICA antibody (hole); also called h10D10×MICA; NKp46 (humanized 10D10)×MICA bispecific antibody
As for B3, the binding result in assay [2] and in assay [3] was “binds” each time.
